Test results reported in the NTF2 design screens of Basanta et al. (2020).

Assay: protease stability score; higher = more stable; yeast display proteolysis, trypsin and chymotrypsin;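 further: relative to predicted unfolded state with 0 unfolded-like and 1 meaning tenfold more protease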

Row | Sequence | protease stability score
1 | DEDEESATKFTRELIHHTRTGDEESLKELADPNVRIDFNGVEIHGMEWWLKLHVHLGAKIILRLKDIETIGDKVHIHGEREIRVNGKNIRTKIRILVEKVDGRWVLKHEELG | 1.21
2 | DEDEESLRRMTTLLLYLWLTGDFEEMQKLADPRVKLDAENRNVHGREEWYEFMKRLGVKHSEVHHLRVINGRIDVETRVDVDGQEVRIRFIIDKVDGRWFLRRVYVH | 1.85
3 | DEDEESNKLFEDLLSEAIRTGDWRMLRHLADPNVRVDINGKKLVGWEELMRFMHELRIDRHHSRIHDSDSQGDKMHIDVRLEIDGNINGRKHRFRIESELILVKVNGRWLLEESRVG | 1.67
4 | DEDEESSESFYRLWVELFETGNFEILERLFDPHVRIKIGDKHIHGMEEHIRESFHIIERFKGVQIRVDEVRLFDGRMDVHGELIINGQSVRMRIIVRKVNGRWHLTEMILD | 1.48
5 | DEDEESSKLAIEFLLRALITGDEKTMSELLDPNARLVVNGVEIVGMHVIVRHFIEMRLERIHVRIRSWTVFDGRLLNDTELHRHINVNGVEEDRSNRVELFVKKVDGKWKLEMIIIN | 2.63
6 | DEDEESTKHALELWEESMETGDEHDLKHLVDPHARLEVGDKTYHGREAVHVLFRRIDHLHDIRIDHVEVQGNKIHMDVTLNYYFNGRVEEEKFEILILKINGRWRIKSMRIK | 1.78
7 | DEDEETAIRVVKEFWKAVMTGDERHLKEYFDPHTRLDVDGQDQHGREDLTEFMFHMRVERTTIHNWRLQGDYVYLHVHVVGQINGKSKETEFYIVVFKINGRWSIHHITIR | 1.33
8 | DEDEETAREMVEHFLQILLTGDEHNLSRLMDPNARVQIGDKTLHGRVNFVKWIEELGLDRVDVQLRRSRVIGNKIHIHGEERFNGVTMESHVDAVKINGQWHIERVEHR | 0.629
9 | DEDEETITRTLEFQRESLRTGDWKFIHRLFDPDARFLINGRDRHGRDLLIDILRKLGVEKINLHVHRMSYVGDKMRVETELVVGDFIFDTRLFEEKVNGKWLMRSMEIH | 0.735
10 | DEDEETLHEIVEILIRWLKTGDFDAVLKNLDPDARVEINGQELHGREQWYRYIHEEWKKVKNLTIIVSRMHVQGDKVMFEGEVHFDGQRRDVSIDMRVVNGRFRTIKKEVK | 1.28
11 | DEDEEVIRRMLETELNAVKTGDWRKFYELADPSVLVDIDGKKIHGRELWSRHLMHLRIDEIHIRIDHMDVVNGVAELHIKMEFRGTIDGVHRKQSTEVILFIKKIDGQWVIQKIEVR | 1.27
12 | DEDEEVSRRALEKWIKNFLTGNEDSVLELADPHMRIVQGDKEYHGRHEMRDMMTDWLREIRIKTVEERHFRVIDGRVDHHVTLHGIVNGKETVRRMIVISEKVDGKWILHSLEIR | 0.907
13 | DEDEEYAREMYRLSVEALSTGDEDTLRHLFDPDVKVSWNGKENIGMEQSLKHWHHLRIEFRRIKIEQVHIQGNKVRLNLRVDGYIRVDGKEDRVHMKSHSVYVKINGKWTMHSIEFE | 1.79
14 | DEDEHARKFVLDRLQHAWETGDEETMEKLMDPNAKLHVNGQDFHGRDTWHKLLHDELRDMGIKHFEFELKSFESQGNKLIIDGLEISEFNGREFRHRVTLIVDKFNGRWVVQSVEIR | 1.29
15 | DEDEHDAEIWVRLVLKSLRTGDEEFLVKMADPNVRVEVGDKKDHGRNEFRKVVHKFKGVRREIHHVDVHIQGNKAEVEIHGKLNINGVEVHIIHIIRSEKVDGQWYISEVWIIIR | 1.55
16 | DEDEHDSEIAVKLFVRHMETGDEDVLREYADPRTKILVNGRETHGWETYVKHMQETINKLGVKHTHFELKDVEVQGEKIIAHVRIELNFENHHTTINMILIIHKVDGRWHLKKMKIK | 0.871
17 | DEDEHDVRELIELVLQVERTGNWKIFERLADPNVRLNIDGQEFHGREEALKLREDLLHHWGVDNIEVTLEDVTFQGDKVNSHFTSQFNGREFELIVIIMKIDGKWFLHQIQVHER | 1.19
18 | DEDEHEMRELIDKWLHNLKTGDEKRTEELMDPHAKIRTVINGVEYRFHGREMLHYLVQILGVDHMEIKHVEIRVQGNKVENHVDLTLIVGDKHVRTRMILVAEKIDGRWEVKSLFFNIE | 1.96

Row | Sequence | protease stability score
19 | DEDEHFAENIIRILLHLIVTGDEDQLERLIDPHVKVTIGDKEFHGRLADEILREEIRIKRVHLRDFRIVNGRAESRFKLVGNWNGVETEFTKSVYIDKINGRWIITERHIT | 1.16
20 | DEDEHHIRTALEYLRHATETGDEELMSEMADPDVRVHVNGVELHGMESYEKWLHDVLREIRIRHVHLEDSKVIGDFVRLDLRVHTEVNGRHFRHQTILISFKYNGQWRIKSVIWR | 1.37
21 | DEDEHHSELASRLMHETTRTGDETSFLNLADPDTRLDINGREFIGREEWVKFFHKWSKHLGAKVIDTRFNDLRVIDGRIKLDMEYIVHVGDKTMHHKMIVFALKVNGRWHLESLKFE | 0.436
22 | DEDEHIERHLFEELIELLRTGDFRRLFELIDPHARFVVDGRDHHGMEYAMRERLRRLEEAGVKHIRIRRKDVINGRLHIHSSVNVNGVEQEERIIIEKVNGRWTITEIVID | 1.26
23 | DEDEHKYRRAAEEFFKILRTGDEDLWKRYADPTPILLLLVGDKIDEYHGMEEVMRVLHEEWRRLGVDHMHVKRVDLQGEKVEMDFTRHIGDKTIRITIIVVVIDGRMKSVEIRTH | 0.8
24 | DEDEHLARRLSTEVEKLMLTGDEHLIKRLLDPDARINVNGVDLHGRHHYITHLHRFLLEAGVDNVHSELTTWRVYGDYVHVHGTLHINGVRFNHHFLFEKVDGRWIIKWLDDR | 1.12
25 | DEDEHLLEMALKYFLRHWKTGDEEMIMHLADPNVRLVVGDKKHHGREELFRFVHEMGANHIEVRDSELQGNKLILHLEVNVGDKRHDIKVVIEKIDGRWHLHSLEHR | 1.65
26 | DEDEHLVRYLVEELIKFEQTGNEDEWNRLADPNVRIEINGVENHGREQYRKAFYEWRIHSLTVHHIRIDVQGEKALSIVDTETDGEYNGRQTRVKTNLIIHTKKVDGRWLVHSLVIKTE | 1.25
27 | DEDEHMRRIAYRLMWEVWHTGNFEELISLVDPHARVDIDGVELHGRENFTHELHERLRRMGVETQFRLRKVESYNGVVHIHTELEITIDGRNHKIDFIFYAHKINGRWRMKSEEYR | 1.8
28 | DEDEHMVKHAIELILKSIITGDEDLWKRLFDPDVKIEVGDKDVHGRELATEFMKLWRDHMRFTHHEITRVETYNGRAHIHGRDRVTIDGQEMTRESHLVMIKVDGRWFLHSVHIK | 1.07
29 | DEDEHNVREFIERIMRILETGDEHDFKRMADPDVRFEIGDKLIHGMETWSEIHTDELKRIPNLKIQLRIHDVHAYNGRAHVHSHFVIEFDGKRHIIETEMFIIKINGQWHLRSIKYK | 1.46
30 | DEDEHQSRHLAELIMRHIQTGDEEMIERLADPHARSNVNGVTDHGRNTMRWMKEFFKNLTLHIEDVRIVHIGNKVIVIIHLTVRFENREEHVIIIIISEKFDGRWWITEIEIRIK | 0.505
31 | DEDEHRTKYWMQILIEVFKTGDWRRLWELFDPNVRLDINGKDSHGRRDMVRVFEEELRHMGINHIELRDFEIQGEKAIVHMTINVDGRRHELELIFLVVDGRVKEIRVHER | 1.88
32 | DEDEHTIRELFKEFIIAQVTGDFERLHELLDPHARLEIDGVILHGREQWTKFMQHLLEYLGIKHVSFHLHHLDVQGEKVKLDSRVRLFFNGVHYEKRNIIIWRKFNGRWYLEESTIE | 1.48
33 | DEDEHVLEHIVRLLIRIHLTGNFDRLRELVDPHAQIIIGDKEYHGWHMLEKWLERMGIDHIHIRHNEIRYYGEFAVLHLDTEVSIDGQSLHQIVHLDVDKVDGKWRVKNIRTDHR | 1.34
34 | DEDEHYAREAVHLVYEILHTGDEHELMKYADPDTRIDIGDKTHIGRDRVVEAIHKMHKKLGVDHEVLTDSKVHWQGNKIEIYLKIEIHVGDKRFEMDIIIHLEKINGRWRVKSMRIDFR | 1.33
35 | DEDEKASKEFMRLVMEVLKTGDWKSLVDLADPHARLHINGREIHGREKISEILLHELDLLGFKHMEVRVHHVEVQGEKMKFDVRHSLDVNGVERHETSMIISVKFDGQWWLKEEIVK | -0.07
36 | DEDEKASKVFVRLIKESIETGDEDTITHLADPNVRVIIGDKELHGWEELSRILHELRIHRFIVRREHVYDGRVQIDGRMDTEINGKKFITEVHVDAIKINGVWWLHLVEIR | 1.38
